# Laboratory results reported in the RNAGym collection of RNA variant scans (doi:10.1101/gr.219683.116).
# B1: mRNA-splicing (parent)
# chain: AGUUGCUGCUGGGAGCUCCAGCACAGUGAAAUGGACAGAAGGGCAGAGCAA
# Variants of: B1
# Test: exon inclusion enrichment index; higher = more inclusion; WT1 exon 5 minigene, HEK293
row,Variant,exon inclusion enrichment index
1,AGUUAGGGAUGGGAGCUCCAGCACAGUGAAAUGGACAUUAGGGCAGAGCAA,0.000926
2,AGUUGACGACGGGAGCUCCACCACAGUGAAAUGGACAGAAGGGCAGAGCAA,3.66
3,AGUUGACGACGGGAGCUCCAGCACAGUGAAAUGGGUAGAAGGGCAGAGCAA,0.107
4,AGUUCGCGCCGGGAGCUCCAGCACAGUGAAAUGCUCAGAAGGGCAGAGCAA,1.1
5,AGUUAGGGAUGGGAGCACCAGCACAGUGAAAUGGACAGAAGGGCAGAGCAA,0.00695
6,AGUUGAAGAAGGGAGCUCCAGCACAGUGAAAUGGACAGAAGGGAUGAGCAA,1.71
7,AGUUCGCGCCGGGAGCUCCAGCACAGUGAAAUGGACAGAAGGAGAGAGCAA,4.94
8,AGUUAGGGAUGGGAGCUCCAGCACAGUGAAGUGGACAGAAGGGCAGAGCAA,0.00766
9,AGUUCACACAGGGAGCUCCAGCACAGUGAAAUGGACAGAAGGGACGAGCAA,0.385
10,AGUUGCUGCACGGAGCUCCAGCACAGUGAAAUGGACAGAAGGGCAGAGCAA,2.77
11,AGUUGCUGCUGGGAGCUCCAGCACAGUGAAAUGGGUAGAAGGGCAGAGCAA,0.00277
12,AGUUAGGGAUGGGAGCUCCUACACAGUGAAAUGGACAGAAGGGCAGAGCAA,0.000815
13,AGUUCACACAGGGAGCUCCAGCCGAGUGAAAUGGACAGAAGGGCAGAGCAA,0.664
14,AGUUCUUCUCGGGAGCUCCAGCACAGUGAAAUGGACAGUCGGGCAGAGCAA,2.16
15,AGUUCACACAGGGAGCCACAGCACAGUGAAAUGGACAGAAGGGCAGAGCAA,0.063
16,AGUUGCUGCUGGGAGCUCCAGCACAGUGAAAUGGACAGAAGGGCAGGGCAA,0.0334
17,AGUUCGCGCCGGGAAGUCCAGCACAGUGAAAUGGACAGAAGGGCAGAGCAA,3.04
18,AGUUCGCGCCGGGAGCUCCAGCACAGUGACGUGGACAGAAGGGCAGAGCAA,4.15
19,AGUUGGGGCUGGGAGCUCCAGCACAGUGAAAUGGACAGAAGGGCAGAGCAA,0.0143
20,AGUUUCUUUUGGGAGUUCCAGCACAGUGAAAUGGACAGAAGGGCAGAGCAA,0.128
21,AGUUAGGGAUGGGAGCUCCACAACAGUGAAAUGGACAGAAGGGCAGAGCAA,0.00656
22,AGUUGAAGAAGGGAGCUCCAGCACAGUGAAAUCCACAGAAGGGCAGAGCAA,0.353
23,AGUUGAAGAAGGGAGCUCCAGCACAGUGAAAUGGACCCAAGGGCAGAGCAA,0.896
24,AGUUAGGGAAUGGAGCUCCAGCACAGUGAAAUGGACAGAAGGGCAGAGCAA,0.00545
25,AGUUAGGGAUGGGAGCUCCAGCACAGUGAAAUGGACUAAAGGGCAGAGCAA,0.00155
26,AGUUUCUUUUGGGAGCUCCAGCACAAUGAAAUGGACAGAAGGGCAGAGCAA,0.201

row,Variant,exon inclusion enrichment index
1,AGUUCACACAGGGAGCUCCGACACAGUGAAAUGGACAGAAGGGCAGAGCAA,0.186
2,AGUUAAUACCGGGAGCUCCAGCACAGUGAAAUGGACAGAAGGGCAGAGCAA,0.811
3,AGUUAUAUAUGGGAGCUCCAGCACAGUGAGAUGGACAGAAGGGCAGAGCAA,0.0451
4,AGUUUCUUUUCCGAGCUCCAGCACAGUGAAAUGGACAGAAGGGCAGAGCAA,0.0331
5,AGUUUCUUUUGGGAGCUCCAGCACAGUGAAAUGGACAGAAACGCAGAGCAA,0.348
6,AGUUCACACAGGGAGCUCCAGCACACGGAAAUGGACAGAAGGGCAGAGCAA,0.537
7,AGUUACCAUCGGGAGCUCCAGCACAGUGAAAUGGACAGAAGGGCAGAGCAA,2.24
8,AGUUCUUCUCGGGAGCUCCAGCACAGUGAAAUGGAGGGAAGGGCAGAGCAA,0.3
9,AGUUAUAUAUGGGAGCUCCAGUCCAGUGAAAUGGACAGAAGGGCAGAGCAA,0.0341
10,AGUUGACGACGGGAGCUCCAGCACAGUGAAAUGGACAGAAGGGCAGGUCAA,0.925
11,AGUUGACGACGGGAGCUCCAGCACAGUGAAAUGUGCAGAAGGGCAGAGCAA,1.29
12,AGUUGACGACGGGAGCUCCAGCACACUGAAAUGGACAGAAGGGCAGAGCAA,3.46
13,AGUUUCUUUUGGGAGCUCCAGCACAGUUGAAUGGACAGAAGGGCAGAGCAA,0.118
14,AGUUACCACCGGGAGCUCCAGCACAGUGAAAUGGACAUAAGGGCAGAGCAA,0.919
15,AGUUCUAGUCGGGAGCUCCAGCACAGUGAAAUGGACAGAAGGGCAGAGCAA,0.234
16,AGUUGACGACGGGAGCUCCAGCACAGUGAUAUGGACAGAAGGGCAGAGCAA,2.51
17,AGUUCGCGCCGGGAGCUCCAGCACAGUGAAAUGGACAGAAGGGCAUAGCAA,2.51
18,AGUUGCUGCUGGGAUCUCCAGCACAGUGAAAUGGACAGAAGGGCAGAGCAA,0.0812
19,AGUUAGGGAUGGGAGCUCCAGCACAGUGAAAUGGACGUAAGGGCAGAGCAA,0.000981
20,AGUUGCUGCUGGGAGCUCCAGCAUGGUGAAAUGGACAGAAGGGCAGAGCAA,0.487
21,AGUUAUAUAUGGGAGCUCCAGCACAGUGAAAUGCACAGAAGGGCAGAGCAA,0.0129
22,AGUUGCUGCUGGGCCCUCCAGCACAGUGAAAUGGACAGAAGGGCAGAGCAA,0.0378
23,AGUUUCUUUUGGUAGCUCCAGCACAGUGAAAUGGACAGAAGGGCAGAGCAA,0.00294
24,AGUUGCUGCUGGGGACUCCAGCACAGUGAAAUGGACAGAAGGGCAGAGCAA,0.102
25,AGUUCACACACCGAGCUCCAGCACAGUGAAAUGGACAGAAGGGCAGAGCAA,0.382
